Usually Kd stands for a measure of binding affinity in units of concentration. A low value points to tighter binding.

1 molecule from publication PMC11035111, “Angiotension II directly bind P2X7 receptor to induce myocardial ferroptosis and remodeling by activating human antigen R” (Redox Biology, 2024) can be followed below.

The assay concerns the target T1, biotinylated angiotensin II (biotin (position not given)).
T1 construct: angiotensin II, the peptide hormone cut from angiotensinogen; Held by its biotin on the SA chip (BLI) or on streptavidin beads (pull-down); also called Bio-Ang II; bio-Ang II; source: bought: created by Beijing Fanbo Biological Chemical Co., Ltd
The assay can be described thus: BLI; Octet R8; biotinylated Ang II (1 ug/ml in 1x PBS) captured on an SA chip to a signal of 0.8 nm; P2X7R protein in SD buffer at 1, 0.5, 0.25 and 0.0625 uM. Conditions: both partners purified. For orientation: In BLI a coated tip is dipped into the sample, and binding shifts an interference pattern.

B1: purified P2X7R protein (extracellular domain) (domain or fragment)
chain: SDKLYQRKEPLISSVHTKVKGVAEVTENVTEGGVTKLVHGIFDTADYTLPLQGNSFFVMTNYLKSEGQEQKLCPEYPSRGKQCHSDQGCIKGWMDPQSKGIQTGRCIPYDQKRKTCEIFAWCPAEEGKEAPRPALLRSAENFTVLIKNNIDFPGHNYTTRNILPGMNISCTFHKTWNPQCPIFRLGDIFQEIGENFTEVAVQGGIMGIEIYWDCNLDSWSHRCQPKYSFRRLDDKYTNESLFPGYNFRYAKYYKENGMEKRTLIKAFGVRFDILVFGTGGKF
In turn, B1 returned a Kd of 9.63 nM.
